Assay results published in patent publication US20240207432A1 (BIOSION, published 2024).
Read-outs that look alike come from different tables or passages of the source.

Legend:
[1] = biological target: T1, full length human TROP2 on 293F-TROP2 cells (human, UniProt P09758 27-323); test: FACS on 293F-TROP2 cells, MFI
T1 construct: also called 293F-TROP2 cells (clone ID #3A8); cell surface TROP2
T1 sequence: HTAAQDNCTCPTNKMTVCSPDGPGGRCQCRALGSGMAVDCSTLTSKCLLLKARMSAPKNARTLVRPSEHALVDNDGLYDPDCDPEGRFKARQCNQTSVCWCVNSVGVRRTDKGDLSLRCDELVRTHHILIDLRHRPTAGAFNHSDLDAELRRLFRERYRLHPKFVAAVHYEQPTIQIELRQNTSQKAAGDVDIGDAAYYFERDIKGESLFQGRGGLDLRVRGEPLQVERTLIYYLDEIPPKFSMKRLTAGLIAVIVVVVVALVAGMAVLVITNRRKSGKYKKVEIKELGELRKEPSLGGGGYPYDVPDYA
Method: The binding activity of the mouse anti-TROP2 antibodies to cell surface TROP2 proteins was tested by flow cytometry (FACS), using Biosion in-house prepared 293F-TROP2 cells (clone ID #3A8) stably expressing full length human TROP2s (uniprot #P09758, SEQ ID NO.: 71) on cell membrane. The 293F-TROP2 cells were prepared by transfecting 293F cells (Thermofisher Inc., Cat #11625019) with a pCMV-T-P plasmid inserted with human TROP2 coding sequence between EcoRI and XbaI sites, following the instruction of lipofectamine 3000 transfection reagent (Thermo Fisher).
(§1) The 293F-TROP2 cells were harvested from cell culture flasks, washed twice and re-suspended in phosphate buffered saline (PBS) containing 2% v/v Fetal Bovine Serum (FACS buffer). […] Following an incubation of 40 minutes at 4° C. in dark, cells were washed twice and re-suspended in FACS buffer. Fluorescence was measured using a Becton Dickinson FACS Canto II-HTS equipment, and the MFI (mean fluorescence intensity) was plotted against antibody concentration. Data was analyzed using Graphpad Prism software and EC₅₀ values were reported.

[2] = biological target: T1, full length human TROP2 on 293F-TROP2 …; test: FACS on 293F-TROP2 cells, MFI; remark: listed apart in the source
Method: as §1

[3] = biological target: T2, cynomolgus TROP2-his protein (cynomolgus monkey, UniProt P09758 27-272 (human entry), limits assumed); test: indirect ELISA, cynomolgus TROP2-his coated, OD(450-630)
T2 construct: no cleavage site is stated; also called Cynomolgus monkey TROP2-his protein; monkey TROP2
T2 chain: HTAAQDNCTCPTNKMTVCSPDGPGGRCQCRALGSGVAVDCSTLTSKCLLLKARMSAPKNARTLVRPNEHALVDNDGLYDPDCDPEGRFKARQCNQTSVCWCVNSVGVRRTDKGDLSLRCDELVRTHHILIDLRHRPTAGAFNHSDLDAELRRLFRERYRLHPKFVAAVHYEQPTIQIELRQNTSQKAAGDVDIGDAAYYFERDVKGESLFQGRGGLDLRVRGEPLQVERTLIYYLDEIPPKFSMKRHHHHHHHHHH

[4] = biological target: T2, cynomolgus TROP2-his protein; test: as above
[5] = biological target: T2, cynomolgus TROP2-his protein; test: indirect ELISA, cynomolgus TROP2-his coated at 2 ug/mL, OD(450-630)
Method: The anti-TROP2 antibodies of the disclosure were tested for their cross-reaction with cynomolgus TROP2 proteins. Briefly, 96-well micro plates were coated with 100 μl 2 μg/ml cynomolgus TROP2-his proteins (prepared in-house with SEQ ID NO: 70) in carbonate/bicarbonate buffer (pH 9.6) overnight at 4° C. ELISA plates were washed once with wash buffer (PBS+0.05% v/v Tween-20, PBST) and then blocked with 200 μl/well blocking buffer (5% w/v non-fatty milk in PBST) for 2 hours at 37° C. […] After a final wash, plates were incubated with 100 μl/well TMB (Innoreagents) at room temperature. The reaction was stopped 3-10 minutes later at room temperature with 50 μl/well 1M H₂SO₄, and the absorbance of each well was read on a microplate reader using dual wavelength mode with 450 nm for TMB and 630 nm as the reference wavelength. The OD (450-630) values were plotted against antibody concentration. Data was analyzed using Graphpad Prism software and EC₅₀ values were reported.

human TROP2-his protein = biological target: T3, human TROP2-his protein (human, UniProt P09758 27-274); test: capture ELISA, antibody captured on anti-mouse IgG Fc coat, biotin human TROP2-his in solution, OD(450-630)
T3 construct: Biotin-labelled in the ELISAs, unlabelled analyte in Biacore; also called biotin-labeled human TROP2-his protein; biotin human Trop2-his
T3 sequence: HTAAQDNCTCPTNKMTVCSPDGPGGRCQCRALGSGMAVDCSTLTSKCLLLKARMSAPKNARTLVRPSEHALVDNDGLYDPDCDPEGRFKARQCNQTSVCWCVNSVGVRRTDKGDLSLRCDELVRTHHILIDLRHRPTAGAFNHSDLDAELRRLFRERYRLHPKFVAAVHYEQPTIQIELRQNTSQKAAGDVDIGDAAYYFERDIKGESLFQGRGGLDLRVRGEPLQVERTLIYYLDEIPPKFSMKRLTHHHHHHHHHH
Method: Plates were washed once with wash buffer (PBS+0.05% v/v Tween-20, PBST) and then blocked with 200 μl/well blocking buffer (5% w/v non-fatty milk in PBST) for 2 hours at 37° C. […] Plates containing captured anti-TROP2 antibodies were incubated with biotin-labeled human TROP2-his protein (prepared in house, SEQ ID NO: 67, 56.7 ng/mL in 2.5% w/v non-fatty milk in PBST, 100 μl/well) for 40 minutes at 37° C., washed 4 times, and incubated with streptavidin conjugated HRP (1:10000 dilution in PBST, Jackson Immuno Research, Cat #016-030-084, 100 μl/well) for 40 minutes at 37° C. After a final wash, plates were incubated with 100 μl/well ELISA substrate TMB (Innoreagents, Cat #TMB-S-002) at room temperature. The reaction was stopped in 3-10 minutes at room temperature with 50 μl/well 1M H₂SO₄, and the absorbance of each well was read on a microplate reader using dual wavelength mode with 450 nm for TMB and 630 nm as the reference wavelength. The OD (450-630) values were plotted against antibody concentration. Data was analyzed using Graphpad Prism software and EC₅₀ values were reported.

Binder | EC50 [1] | EC50 [2] | EC50 [3] | EC50 [4] | EC50 [5] | EC50 (human TROP2-his protein) | EC50 (read off the curve) [1]
mouse antibody A1E4F7D4 (antibody, V domains shown, Mouse monoclonal IgG purified from hybridoma supernatant; also called Mouse A1E4F7D4) VH: QVQLQQSGAELAKPGTSVKMSCEASGYSFTTHWIHWMKQRPGQGLEWIGTIFPSNAYAVYNQKFRDRAIMTADRSSTTAYIQLTGLTSEDSAVYYCARASYFDYWGQGTTLTVSS VL: DILLTQSPATLSVSPGERVTFSCRASQNIGTSIHWFQQRTTGSPRLLIKYASESISGIPSRFSGSGSGTDFTLHINSVESEDIAHYYCQHSHSWPFTFGSGTKLEIQ | 0.481 nM | 1.48 nM | 0.837 nM | 0.177 nM | 0.576 nM | 0.0891 nM | –
mouse antibody A1E11A12D1 (antibody, V domains shown, Mouse monoclonal IgG purified from hybridoma supernatant) VH: QVQLQQSGAELARPGASVKLSCMASGYTFTTYGISWVRQRTGQGLEWIGQIYPGSDYSYCDEDFKGKATLTADKSSSTAYMQLSSLTSEDSAVYFCARASYFDYWGQGTTLTVSS VL: DILLTQSPAILSVSPGERVSFSCRASQTIGTAIHWYQQRANGSPRLLIKYASESISGIPSRFSGSGSGTDFALSINTVESEDFAYYYCQQSNNWPFTFGGGTKLEIR | 0.78 nM | – | – | – | 0.757 nM | 0.13 nM | –
mouse antibody A1H3C5H8E12 (antibody, V domains shown, Mouse monoclonal IgG purified from hybridoma supernatant) VH: QVQLQQSGAELVRPGTSVKMSCKAAGYTFTNYWIDWVKQRPGHGLEWIGNIFPGGFYTNYNEKFKGKATLTADTSSSTAYMQLSSLTSEDSAIYYCARGGVFDYWGQGTTLTVSS VL: DILLTQSPAILSVSPGERVSFSCRASQSIGTSIHWYQQRTNGSPRLLIKYASESISGIPSRFSGSGSGTDFTLSINSVESEDIADYYCQQSNSWPYTFGGGTKLEIK | 0.773 nM | – | – | – | 0.593 nM | 0.303 nM | –
benchmark (in house prepared sacituzumab) (antibody, human IgG1, kappa, V domains shown, also called BM; BM1) VH: SVQLQQSGSELKKPGASVKVSCKASGYTFTNYGMNWVKQAPGQGLKWMGWINTYTGEPTYTDDFKGRFAFSLDTSVSTAYLQISSLKADDTAVYFCARGGFGSSYWYFDVWGQGSLVTVSS VL: DIQLTQSPSSLSASVGDRVSITCKASQDVSIAVAWYQQKPGKAPKLLIYSASYRYTGVPDRFSGSGSGTDFTLTISSLQPEDFAVYYCQQHYITPLTFGAGTKVEIKR | 0.83 nM | 1.32 nM | 0.599 nM | 0.191 nM | 0.134 nM | – | –
mouse antibody C1B3B12D2 (antibody, V domains shown, Mouse monoclonal IgG purified from hybridoma supernatant) VH: QVQLQQSGPELVRPGTSVKMSCKAAGYTFTKFWIGWVKQRPGHGLEWIGNIYPGGAYINYNENFKGKATLTADTFSSTAYMQLNSLTSADSAIYYCAREGSSGYWGQGTTLTVSS VL: DIVMTQSPSSLTVTAGEKVTLSCKCSQSLLNSGTQENYLTWYQQKPGQPPKMLIYWASIREPGVPDRFTGSGSGTDFTLTINNVQAEDLAVYYCQHDYSYPFTFGSGTKLEIK | – | – | – | 0.0849 nM | – | 0.107 nM | ~1 nM
huA1E4F7D4-V16 (antibody, human IgG1, kappa, V domains shown, Positions of the X residues are given in the claims; also called humanized antibody huA1E4F7D4-V16) VH: QVQLVQSGAEVKKPGASVKVSCKASGYSFTTHWIHWVRQAPGQGLEWIGTIFPSNAYAVYNQKFRDRATMTADTSISTAYIELSRLRSDDTAVYYCARASYFDYWGQGTTVTVSS VL: EIVLTQSPATLSLSPGERATLSCRASQNIGTSIHWFQQKPGGAPRLLIKYASESISGIPSRFSGSGSGTDFTLTISSLEPEDFAVYYCQHSHSWPFTFGQGTKLEIKR | – | 0.596 nM | 0.611 nM | – | – | – | –
